Assay results as given in patent US7118879.
Where two headings read alike, the source gives them in different places.

What was measured:
[1] = target: human neutrophil elastase (immobilized on Reacti-Gel agarose beads, or free) (human) (UniProt P08246); experiment: pH elution of phage from HNE beads
[2] = target: anhydro-trypsin (agarose-immobilized) (UniProt P00760); experiment: 10 µl immobilized anhydro-trypsin slurry, 2 h
[3] = target: trypsin (active, immobilized on beads, or in solution) (UniProt P00760); experiment: trypsin beads
trypsin (active, immobilized on beads, or in solution), sequence (P00760 24-246): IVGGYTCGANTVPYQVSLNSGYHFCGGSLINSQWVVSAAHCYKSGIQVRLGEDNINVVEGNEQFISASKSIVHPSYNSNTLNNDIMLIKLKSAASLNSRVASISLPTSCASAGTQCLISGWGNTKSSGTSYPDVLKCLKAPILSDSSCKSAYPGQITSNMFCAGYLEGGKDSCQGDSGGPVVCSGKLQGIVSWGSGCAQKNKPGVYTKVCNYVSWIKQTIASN

[4] = target: anhydro-trypsin (agarose-immobilized) (UniProt P00760); experiment: 10 µl immobilized anhydro-trypsin, dot blot
[5] = target: anhydro-trypsin (agarose-immobilized) (UniProt P00760); experiment: 2 µl immobilized anhydro-trypsin, dot blot
[6] = target: human neutrophil elastase (immobilized on Reacti-Gel agarose beads, or free) (human) (UniProt P08246); experiment: HNE beads, pH 2.2 elution
[7] = target: human neutrophil elastase (immobilized on Reacti-Gel agarose beads, or free) (human) (UniProt P08246); experiment: HNE beads, sum of pH washes
[8] = target: anhydro-trypsin (agarose-immobilized) (UniProt P00760); experiment: 5 µl immobilized anhydro-trypsin, dot blot
[9] = target: trypsin (active, immobilized on beads, or in solution) (UniProt P00760); experiment: acid-eluted from trypsin beads
[10] = target: anhydro-trypsin (agarose-immobilized) (UniProt P00760); experiment: 5 µl immobilized anhydro-trypsin slurry, 2 h
[11] = target: human neutrophil elastase (immobilized on Reacti-Gel agarose beads, or free) (human) (UniProt P08246); experiment: acid-eluted from HNE beads
[12] = target: human neutrophil elastase (immobilized on Reacti-Gel agarose beads, or free) (human) (UniProt P08246); experiment: HNE beads, pH 4.0 wash
[13] = target: anhydro-trypsin (agarose-immobilized) (UniProt P00760); experiment: 10 µl immobilized anhydro-trypsin slurry, 1 h
[14] = target: human neutrophil elastase (immobilized on Reacti-Gel agarose beads, or free) (human) (UniProt P08246); experiment: HNE beads, pH 7.0 wash
[15] = target: anhydro-trypsin (agarose-immobilized) (UniProt P00760); experiment: anhydrotrypsin beads, experiment 2
[16] = target: trypsin (active, immobilized on beads, or in solution) (UniProt P00760); experiment: trypsin beads; remark: listed apart in the source
[17] = target: anhydro-trypsin (agarose-immobilized) (UniProt P00760); experiment: anhydrotrypsin beads
[18] = target: anhydro-trypsin (agarose-immobilized) (UniProt P00760); experiment: eluted from anhydrotrypsin beads
[19] = target: human neutrophil elastase (immobilized on Reacti-Gel agarose beads, or free) (human) (UniProt P08246); experiment: HNE beads
[20] = target: trypsin (active, immobilized on beads, or in solution) (UniProt P00760); experiment: eluted from trypsin beads
[21] = target: anhydro-trypsin (agarose-immobilized) (UniProt P00760); experiment: titer after anhydrotrypsin beads
[22] = target: anhydro-trypsin (agarose-immobilized) (UniProt P00760); experiment: acid-eluted from anhydrotrypsin beads, experiment 1
[23] = target: protein A (agarose beads) (UniProt P38507); experiment: titer after protein A beads alone; batch 5
[24] = target: anhydro-trypsin (agarose-immobilized) (UniProt P00760); experiment: anhydrotrypsin beads, experiment 1
[25] = target: streptavidin (agarose-immobilized) (UniProt P22629); experiment: titer after streptavidin beads
streptavidin (agarose-immobilized), sequence (P22629 37-163 limits assumed): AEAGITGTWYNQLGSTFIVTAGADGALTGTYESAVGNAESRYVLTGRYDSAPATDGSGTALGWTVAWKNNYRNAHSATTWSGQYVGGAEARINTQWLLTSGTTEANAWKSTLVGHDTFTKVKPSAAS

[26] = target: human Cathepsin G (immobilized on agarose beads) (human) (UniProt P08311); experiment: Cat-G beads, pH 3.5 eluate
human Cathepsin G (immobilized on agarose beads) (human), sequence (P08311 21-244 limits assumed): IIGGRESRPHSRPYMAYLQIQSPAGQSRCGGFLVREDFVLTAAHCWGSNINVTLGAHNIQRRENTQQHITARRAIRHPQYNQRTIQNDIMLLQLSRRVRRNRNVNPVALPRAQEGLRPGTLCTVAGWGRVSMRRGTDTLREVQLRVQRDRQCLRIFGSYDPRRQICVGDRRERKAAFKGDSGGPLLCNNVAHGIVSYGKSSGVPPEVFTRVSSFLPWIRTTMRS

[27] = target: human Cathepsin G (immobilized on agarose beads) (human) (UniProt P08311); experiment: Cat-G beads, pH 5.5 eluate
[28] = target: human Cathepsin G (immobilized on agarose beads) (human) (UniProt P08311); experiment: Cat-G beads, pH 2.0 eluate
[29] = target: human Cathepsin G (immobilized on agarose beads) (human) (UniProt P08311); experiment: Cat-G beads, pH 2.5 eluate
[30] = target: human Cathepsin G (immobilized on agarose beads) (human) (UniProt P08311); experiment: Cat-G beads, pH 4.0 eluate
[31] = target: human Cathepsin G (immobilized on agarose beads) (human) (UniProt P08311); experiment: Cat-G beads, pH 5.0 eluate
[32] = target: human Cathepsin G (immobilized on agarose beads) (human) (UniProt P08311); experiment: Cat-G beads, pH 6.0 eluate
[33] = target: human Cathepsin G (immobilized on agarose beads) (human) (UniProt P08311); experiment: Cat-G beads, all pH eluates
[34] = target: human Cathepsin G (immobilized on agarose beads) (human) (UniProt P08311); experiment: Cat-G beads, pH 7.0 eluate
[35] = target: human Cathepsin G (immobilized on agarose beads) (human) (UniProt P08311); experiment: Cat-G beads, pH 4.5 eluate
[36] = target: human Cathepsin G (immobilized on agarose beads) (human) (UniProt P08311); experiment: Cat-G beads, final TBS-TWEEN wash
[37] = target: human Cathepsin G (immobilized on agarose beads) (human) (UniProt P08311); experiment: Cat-G beads, pH 3.0 eluate
[38] = target: trypsin (active, immobilized on beads, or in solution) (UniProt P00760); experiment: trypsin beads, TBS pH 7.5, pH 2.2 elution
[39] = target: streptavidin (agarose-immobilized) (UniProt P22629); experiment: 5 µl immobilized streptavidin slurry, 2 h
[40] = target: anhydro-trypsin (agarose-immobilized) (UniProt P00760); experiment: 2 µl immobilized anhydro-trypsin slurry, 4 h
[41] = target: trypsin (active, immobilized on beads, or in solution) (UniProt P00760); experiment: trypsin beads, CBS pH 6.5, pH 2.2 elution
[42] = target: anhydro-trypsin (agarose-immobilized) (UniProt P00760); experiment: 5 µl immobilized anhydro-trypsin slurry, 4 h
[43] = target: anhydro-trypsin (agarose-immobilized) (UniProt P00760); experiment: 2 µl immobilized anhydro-trypsin slurry, 2 h
[44] = target: anhydro-trypsin (agarose-immobilized) (UniProt P00760); experiment: 2 µl immobilized anhydro-trypsin slurry, 1 h
[45] = target: anhydro-trypsin (agarose-immobilized) (UniProt P00760); experiment: 5 µl immobilized anhydro-trypsin slurry, 1 h
[46] = target: streptavidin (agarose-immobilized) (UniProt P22629); experiment: 5 µl immobilized streptavidin slurry, 4 h
[47] = target: streptavidin (agarose-immobilized) (UniProt P22629); experiment: 5 µl immobilized streptavidin slurry, 1 h
[48] = target: anhydro-trypsin (agarose-immobilized) (UniProt P00760); experiment: 10 µl immobilized anhydro-trypsin slurry, 4 h
[49] = target: M13MB48 phage (BPTI fused to the mature M13 gene VIII major coat protein) (Bos taurus / phage M13); experiment: titer after normal rabbit IgG; batch 4
[50] = target: M13mp18 phage (wild type, non-display phage); experiment: titer after normal rabbit IgG
[51] = target: M13mp18 phage (wild type, non-display phage); experiment: titer after normal rabbit IgG + protein A beads
[52] = target: M13MB48 phage (BPTI fused to the mature M13 gene VIII major coat protein) (Bos taurus / phage M13); experiment: titer after normal rabbit IgG + protein A beads; batch 5
[53] = target: M13MB48 phage (BPTI fused to the mature M13 gene VIII major coat protein) (Bos taurus / phage M13); experiment: titer after normal rabbit IgG + protein A beads; batch 4
[54] = target: M13MB48 phage (BPTI fused to the mature M13 gene VIII major coat protein) (Bos taurus / phage M13); experiment: titer after normal rabbit IgG; batch 5

human neutrophil elastase (immobilized on Reacti-Gel agarose beads, or free) (human), sequence (P08246 30-247 limits assumed): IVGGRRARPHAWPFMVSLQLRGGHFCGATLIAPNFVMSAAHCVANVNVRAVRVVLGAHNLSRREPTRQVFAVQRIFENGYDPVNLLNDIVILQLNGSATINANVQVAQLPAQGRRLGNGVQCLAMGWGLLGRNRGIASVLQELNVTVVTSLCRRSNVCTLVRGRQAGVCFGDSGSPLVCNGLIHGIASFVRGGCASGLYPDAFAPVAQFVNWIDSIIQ

With “BPTI(K15V,R17L)-III MA phage (designed binder)” the pH of elution peak [1] was 4.25 pH.

“BPTI-III MK phage (M13 phage displaying mature BPTI fused to the gene III protein)” gave a percent residual titer [2] of 30%, a relative binding (to M13MP18) [3] of 5000 fold and a percent of total phage recovered in elution buffer [4] of 50%. For the same substance, the percent of total phage recovered in elution buffer [5] was 5%, the % of input phage recovered [6] was 0.005% and the percentage of input phage recovered (all fractions) [7] was 0.008%. It also gave a percent of total phage recovered in elution buffer [8] of 20%, an eluted phage, % of input [9] of 1% and a percent residual titer [10] of 40%. It also gave an eluted phage, % of input [11] of 0.005%, a % of input phage [12] of 0.001% and a total pfu in fraction [12] of 30000 pfu. For the same substance, the percent residual titer [13] was 40%, the % of input phage [14] was 0.002% and the total pfu in fraction [14] was 50000 pfu. For the same substance, the binding relative to M13mp18 [15] was 40 fold and the relative binding (to M13MP18) [16] was 2000 fold.

“M13.3X7 phage (BPTI:VIII fusion with one EGGGS linker)” showed an eluted phage, % of input [11] of 0.001%.

Substance “M13.3X11 phage (BPTI:VIII fusion with three linker units)” has a relative binding (to M13MP18) [17] of 92 fold, a relative binding (to M13MP18) [3] of 1200 fold and an eluted phage, % of input [18] of 9.2%. The relative binding (to M13MP18) [19] was 6.7 fold, the eluted phage, % of input [9] was 0.8% and the eluted phage, % of input [11] was 0.002%. For the same substance, the eluted phage, % of input [20] was 0.27% and the relative binding (to M13MP18) [16] was 1600 fold.

Substance “M13MB48 phage (BPTI fused to the mature M13 gene VIII major coat protein)” has a relative binding (to M13MP18) [19] of 30 fold, a % of input pfu post incubation [21] of 58% and an eluted phage, % of input [22] of 11.2%. The % of input pfu [23] was 58%, the eluted phage, % of input [9] was 0.13% and the eluted phage, % of input [11] was 0.009%. For the same substance, the binding relative to M13MP18 [24] was 56 fold, the % of input pfu post incubation [25] was 98% and the relative binding (to M13MP18) [16] was 260 fold.

For “MA-ITI phage (M13 phage displaying human ITI domain I fused to the gene III protein) (from UniProt P02760 227-281)”, the fraction of input [26] was 9.6e-07, the fraction of input [27] was 2.6e-06 and the fraction of input [28] was 7e-07. It also gave a fraction of input [29] of 5.9e-07, a fraction of input [30] of 9.6e-07 and a fraction of input [31] of 2.4e-06. For the same substance, the fraction of input [32] was 5e-06, the fraction of input, SUM of pH elution fractions [33] was 3e-05 and the total pfu, SUM of pH elution fractions [33] was 1.4e+07 pfu. It also gave a fraction of input [34] of 1.3e-05, a fraction of input [35] of 1.5e-06 and a fraction of input [36] of 1.5e-05. For the same substance, the total pfu in sample [36] was 7.1e+06 pfu and the fraction of input [37] was 7.8e-07.

With “MK phage (M13-MB1/2-delta-NarI with kanamycin-resistance gene; no displayed domain)” the % of input phage recovered [38] was 0.00034%, the total pfu recovered in elution buffer [38] was 1.48e+06 pfu and the percent residual titer [2] was 93%. For the same substance, the percent residual titer [39] was 96%, the percent residual titer [40] was 95% and the % of input phage recovered [41] was 0.00028%. It also gave a total pfu recovered in elution buffer [41] of 1.35e+06 pfu, a percent residual titer [42] of 96% and a percent residual titer [43] of 103%. The percent residual titer [10] was 111%, the percent residual titer [44] was 97% and the percent residual titer [45] was 110%. The percent residual titer [46] was 98%, the percent residual titer [47] was 106% and the percent residual titer [48] was 106%. The percent residual titer [13] was 99%.

Work on “normal rabbit serum / IgG purified from normal rabbit pre-immune serum (antibody)” yielded a % of input pfu [49] of 125%, a % of input pfu [50] of 104% and a % of input pfu [51] of 88%. The % of input pfu [52] was 110%, the % of input pfu [53] was 121% and the % of input pfu [54] was 105%.
